According to the nanobody polyreactivity screen of Harvey et al. (2022):

Assay: yeast display, Sf9 membrane polyspecificity reagent, FACS + sequencing; frameworks hold sequencing errors
How it was run: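 Genes from sorted yeast were amplified by colony PCR, read by MiSeq 2 × 250 sequencing and filtered on CDR length. These cells carried a synthetic nanobody library in Saccharomyces cerevisiae BJ5465 and were sorted by FACS into low and high (top ~1%) gates on anti-HA and streptavidin fluorescence. Polyreactivity is labelled according to the gate of origin.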

| Sequence | polyreactivity (PSR sort gate) |
| --- | --- |
| QVQLVESGGGLVQAGGSLRLICAASGSIFFYNAMGWYRQAPGKERELVAAITTRGGSTYYADSVKGRFTISRDNAKNTVYLQMNSLKPEDTAVYYCARSSRGKLDYWGQGTQVTVSS | low polyreactivity |
| QVQLVESGGGLVQAGGSLRLICAASGSIFHRYTMGWYRQAPGKERELVAAINYSGSTTHYADSVKGRFTISRDNAKNTVYLQMNSLKPEDTAVYYCAAGSTRWYPTRVRYDYWGQGTQVTVSS | low polyreactivity |
| QVQLVESGGGLVQAGGSLRLICAASGSIFITYAMGWSRPAPGKERELVAAIRDSGDRTYYADSVKGRFTISRDNAKNTVYLQMNSLKPEDTAVYYCNARWQERLKYDYWGQGTQVTVSS | low polyreactivity |
| QVQLVESGGGLVQAGGSLRLICAASGSIFPHYAMGWYRPAPGKERELVAAISRGGSTNYADSVKGRFTISRDNAKNTVYLQMNSLKPEDTAVYYCNALRYYSRFMYAVAYRYDYWGQGTQVTVSS | high polyreactivity |
| QVQLVESGGGLVQAGGSLRLICAASGSIFTKYAMVWYRQAPGKERELVAAITWSGGRTYYADSVKGRYTISRDNAKNTVYLQMNSLKPEDTAVYYCAAELFRQGYYYWGQGTQVTVSS | high polyreactivity |
| QVQLVESGGGLVQAGGSLRLICAASGSIFVGNAMGWYRQAPGKERELVAAITSSGGRTYYADSVKGRFTISRDNAKNTVYLQMNSLKPEDTAVYYCNTSRTRRFSLWAYDYWGQGTQVTVSS | high polyreactivity |
| QVQLVESGGGLVQAGGSLRLICAASGSIFVIYAMGWYRQAPGKERELVAAITSGGNTTYADSVKGRFTISRDNAKNTVSLQMNSLKPEDTAVYYCSADYPWEYDYWGQGTQVTVSS | low polyreactivity |
| QVQLVESGGGLVQAGGSLRLICAASGSIFYFYAMGWYREAPGKERELVAAIRYNGGSTYYADSVKGRFTISRDNAKNTVYLQMNSLKPEDTAVYYCAAGGFHYVYYRGMYYWGQGTQVTVSS | high polyreactivity |
| QVQLVESGGGLVQAGGSLRLICAASGSIFYGYAMGWYRPAPGKERELVAAISYSGDRTYYADSVKGRFTISRDNAKNSVYLQMNSLKPEDTAVYYCAAQRRYGDDYWGQGTQVTVSS | high polyreactivity |
| QVQLVESGGGLVQAGGSLRLICAASGSIFYRYTMGWYRQAPGKERELVAAISSRGGSTYYADSVKGRFTISRDNAKNTVYLQMNSLKPEYTAVYYCAARFSYWAPSKGYGYWGQGTQVTVSS | high polyreactivity |
| QVQLVESGGGLVQAGGSLRLICAASGSKFSSYCMGWYRQATGQEMELVAAISKRGGSTYYADTVKGRFTISRDNAKNTVYLQMNSLKPEDTAVYYCAAAVSIQGYSTLFDYWGQGTQVTVSS | high polyreactivity |
| QVQLVESGGGLVQAGGSLRLICAASGSNFGSNAMGWYRQAPGKETEFVAVITWRVGVTYYADSVKGRFTISRDNAKNTVYLQMNSLKPEDTAVYYCNVDWKVYGAPDYRIAWKYDYWGQGTQVTVSS | low polyreactivity |
| QVQLVESGGGLVQAGGSLRLICAASGSTFDGYAMGWYRQAPGKERELVAAISKNGVRTYYADSVKGRFTISRDNAKNTVYLLMNSLKPEDTAVYYCAKDIIKYDYDYWGQGTQVTVSS | low polyreactivity |
| QVQLVESGGGLVQAGGSLRLICAASGSTFEYYAMGWYRPAPGKERELVAAINGIGGSTTYADSVKGRFTISRDNAKNTVYLQMNSLKPEDSAVYYCNADVARSKSQASAYDYWGQGTQVTVSS | low polyreactivity |
| QVQLVESGGGLVQAGGSLRLICAASGSTFFYNAMGWYRQAPGKEREFVAAIRWRGGSTYYADSVKGRFTISRDNAKNTVYLQMNSLKPEDTAVYYCAAVYYRWEYDYWGQGTQVTVSS | high polyreactivity |
| QVQLVESGGGLVQAGGSLRLICAASGSTFGAYAMGWYRQAPGKERELVAAISRSGGTTYYADSVKGRFTISRDNSKNTVYLQMNSLKPEDTEVYYCAADWLNSVPYNYWGQGTLVTVSS | low polyreactivity |

| Sequence | polyreactivity (PSR sort gate) |
| --- | --- |
| QVQLVESGGGLVQAGGSLRLICAASGSTFGPNAMGWYRQAPGKEREFVASISWRGGRTYYADSVKGRFTISRDNAKNSVYLQMYCLKPEDTAVSYCAAVSYPAVYGFDYWGQGTQVTVSS | high polyreactivity |
| QVQLVESGGGLVQAGGSLRLICAASGSTFIKYTMGWYRPAPGKERELVAAISRIGGSTYYADSVKGRFTISRDNAKNTVYLQMNSLKPEDTAVYYCAAPYPIGHDWGQGTQVTVSS | low polyreactivity |
| QVQLVESGGGLVQAGGSLRLICAASGSTFLKYTMVWYRQAPWKERELVAAISKSGGSTYYADSVKGRFTISRDHAKNTVYLQMNSLKPEDTAVYYCAKVRSWVSSYGYGYWGQGTQVTVSS | high polyreactivity |
| QVQLVESGGGLVQAGGSLRLICAASGSTFLSNAMGWYRQATGKERELVAAITTSGTSTFYSDSVKGRFTISRDNAKNTVYLQMNSMKPEDTAVYYCAADSAHRYIPVQGYDYWGQGTQVTVSS | low polyreactivity |
| QVQLVESGGGLVQAGGSLRLICAASGSTFNDYVMGWYRQAPGKERELVAAISRSGGSTYYADSVKGRITISRDNAKNTVYLQMNSLKPEDTAVYYCAAASPGPWRYDYWGQGTQVTVSS | high polyreactivity |
| QVQLVESGGGLVQAGGSLRLICAASGSTFPGYAMGWYRQAPGKERELVATITRRGGSTYYADSVKGRFTISRDNAKNTVYLQMNSLKPEDTAVYYCNAVDYTVWLFPYDTGVDYWGQGTQVTVSS | low polyreactivity |
| QVQLVESGGGLVQAGGSLRLICAASGSTFSDNAMGWYRPAPGKERELVAAISRSGGSTYYADSVKGRFTLSRDNANNTVYLQMNSLKPEDTAFYYGATKSVLTGYDSWGQGTKVTVSS | high polyreactivity |
| QVQLVESGGGLVQAGGSLRLICAASGSTFTPNDMGWYRQAPGKERELVADISNYADSVKGRFTISRDNAKNTVYLQMNSLKPEDSAVYYCAAEWGGDRYGLYVVSWWYDYWGQGTQVTLSS | low polyreactivity |
| QVQLVESGGGLVQAGGSLRLICAASGSTFTPYAMGWYRQEPGKERELVAAIRGSGGRTYYADSVKGRFTISRDNAKNTVYLQMNSLKPEDTAVYYCAASWLYTGWGRYDYWGQGTQVTVSS | high polyreactivity |
| QVQLVESGGGLVQAGGSLRLICAASGSTFVEYAMGWYRQAPGKERELVATISYRGTRTYYADSVKGRFTISRDNAKNTVYLQMNSLKPEDTAVYYCAARSWFRTVEYDYWGKGTQVTVSS | high polyreactivity |
| QVQLVESGGGLVQAGGSLRLICAASGSTFWWYAMGWYRKAPGKEREFVAAIRWSSGSTYYADSVKGRFTISRDNAKNTVYLQMNSLKPEDTAVYYCATDDTSNVYVDLDYWGQGTQVTVSS | high polyreactivity |
| QVQLVESGGGLVQAGGSLRLICAASGSTFYHNVMGWYRQAPGKERELLASIYRGGSTYYADSVKGRFTISRDNAKNTVYVQMNSLKPEDTAVYYCAADLSSDSSYSGYDYSGQGTQVTVSS | low polyreactivity |
| QVQLVESGGGLVQAGGSLRLICAASGSTFYIYAMGWYRQAPGKERELGATISSTGSTHYADSVKGRFTISRDNAKNTVYLQMNSLKPEDTAVYYCNRVYFGRYSRRDHWGQGTQVTVSS | high polyreactivity |
| QVQLVESGGGLVQAGGSLRLICAASGSTFYSYTMGWYRPAPGKERELVARISSSGSTNYADSVKGRFTISRYNAKNTVYLQMNSLKPEDTAVYYCNKDWFYRGYDYWGQGTQVTVSS | high polyreactivity |
| QVQLVESGGGLVQAGGSLRLICAASGSTFYTYAMGWYRQAPGKEREFVAAIRWRGGSTYYADSVKGRFTISRDNSKNTVFLQMNSLKPEDTAVYYCAAVSPGTVTNGKSRDYWGQGTQVTVSS | high polyreactivity |
| QVQLVESGGGLVQAGGSLRLICAASGSTFYYYTRVWYRQAPGKERELVAAISYGGSSTYYADSVKGRFTISRDNAKNSVYLQMNSLKPEDTAVYYCAAEYDWSYWLSYDYWGQGTLVTVSS | low polyreactivity |
